Measurements published in article doi:10.1101/686782 (bioRxiv, 2019).

Target: the molecule itself
Assay: cryo-EM structure

Protein | stoichiometry N
P. savastanoi FliQ (natural protein, also called FliQ5) MTPEVAVDLFREALWLTTVLVAILVVPSLLCGLLVAMFQAATQINEQTLSFLPRLLVMLVTLIVIGPWLLKIFMEYMLSLYTSIPTLIG | 5
P. savastanoi FliP (natural protein) ADPLSIPAITLSNGADGQQEYSVSLQILLIMTALSFIPAFVMLMTSFTRIIIVFSILRQALGLQQTPSNQILTGMALFLTMFIMAPVFDRVNQDALQPYLAEKLSAQDAVAKAQVPIKDFMLAQTRTSDLELFMRLSKRTDIPTPDAAPLTILVPAFVISELKTAFQIGFMIFIPFLIIDLVVASVLMAMGMMMLSPLIISLPFKIMLFVLVDGWALIVGTLAGSFGGV | 5
